39 variants from the Human Domainome abundance scans (Beltran et al. 2025) can be followed below.

± gives the uncertainty stated by the source.

The labels stand for the following.
B1: Serine/threonine-protein kinase A-Raf, residues 21 to 89; numbered along this chain, P10398 (parent)
chain: VKVYLPNKQRTVVTVRDGMSVYDSLDKALKVRGLNQDCCVVYRLIKGRKTVTAWDTAIAPLDGEELIVE

Variants of B1 are the subject of this data set. Nature of the data set: abundance fitness (aPCA) (normalised: wild type 0, dead -1); higher = more abundant; growth selection in yeast, the domain comes from the species named. The following applies: Homo sapiens.
Consider VKVYLPNKQRTVVTVRDGMSVEDSLDKALKVRGLNQDCCVVYRLIKGRKTVTAWDTAIAPLDGEELIVE, for which the abundance fitness is -0.144 ± 0.085.
For VKVYLPNKQRTVVTVRDGMSVKDSLDKALKVRGLNQDCCVVYRLIKGRKTVTAWDTAIAPLDGEELIVE the value was 0.012 ± 0.062.
For the variant VKVYLPNKQRTVVTVRDGMSVNDSLDKALKVRGLNQDCCVVYRLIKGRKTVTAWDTAIAPLDGEELIVE, the abundance fitness was -0.346 ± 0.15.
Regarding VKVYLPNKQRTVVTVRDGMSVYASLDKALKVRGLNQDCCVVYRLIKGRKTVTAWDTAIAPLDGEELIVE, the abundance fitness is -0.201 ± 0.05.
As to VKVYLPNKQRTVVTVRDGMSVYTSLDKALKVRGLNQDCCVVYRLIKGRKTVTAWDTAIAPLDGEELIVE, the abundance fitness is -0.087 ± 0.055.
Regarding VKVYLPNKQRTVVTVRDGMSVYVSLDKALKVRGLNQDCCVVYRLIKGRKTVTAWDTAIAPLDGEELIVE, the abundance fitness is -0.389 ± 0.039.
As to VKVYLPNKQRTVVTVRDGMSVYYSLDKALKVRGLNQDCCVVYRLIKGRKTVTAWDTAIAPLDGEELIVE, the abundance fitness is -0.825 ± 0.21.
As for VKVYLPNKQRTVVTVRDGMSVYHSLDKALKVRGLNQDCCVVYRLIKGRKTVTAWDTAIAPLDGEELIVE, the abundance fitness was -0.345 ± 0.26.
Regarding VKVYLPNKQRTVVTVRDGMSVYRSLDKALKVRGLNQDCCVVYRLIKGRKTVTAWDTAIAPLDGEELIVE, the abundance fitness is -0.283 ± 0.045.
As for VKVYLPNKQRTVVTVRDGMSVYFSLDKALKVRGLNQDCCVVYRLIKGRKTVTAWDTAIAPLDGEELIVE, the abundance fitness is -0.056 ± 0.12.
For VKVYLPNKQRTVVTVRDGMSVYQSLDKALKVRGLNQDCCVVYRLIKGRKTVTAWDTAIAPLDGEELIVE, the abundance fitness came out at 0.118 ± 0.067.
In the case of VKVYLPNKQRTVVTVRDGMSVYNSLDKALKVRGLNQDCCVVYRLIKGRKTVTAWDTAIAPLDGEELIVE, the abundance fitness was -0.294 ± 0.19.
Consider VKVYLPNKQRTVVTVRDGMSVYMSLDKALKVRGLNQDCCVVYRLIKGRKTVTAWDTAIAPLDGEELIVE, for which the abundance fitness was -0.301 ± 0.069.
Turning to VKVYLPNKQRTVVTVRDGMSVYWSLDKALKVRGLNQDCCVVYRLIKGRKTVTAWDTAIAPLDGEELIVE, the abundance fitness was -0.338 ± 0.053.
To VKVYLPNKQRTVVTVRDGMSVYESLDKALKVRGLNQDCCVVYRLIKGRKTVTAWDTAIAPLDGEELIVE belongs 0.085 ± 0.057.
To VKVYLPNKQRTVVTVRDGMSVYGSLDKALKVRGLNQDCCVVYRLIKGRKTVTAWDTAIAPLDGEELIVE belongs -0.388 ± 0.038; to VKVYLPNKQRTVVTVRDGMSVYSSLDKALKVRGLNQDCCVVYRLIKGRKTVTAWDTAIAPLDGEELIVE, -0.145 ± 0.065; to VKVYLPNKQRTVVTVRDGMSVYCSLDKALKVRGLNQDCCVVYRLIKGRKTVTAWDTAIAPLDGEELIVE, -0.908 ± 0.26.
As to VKVYLPNKQRTVVTVRDGMSVYKSLDKALKVRGLNQDCCVVYRLIKGRKTVTAWDTAIAPLDGEELIVE, the abundance fitness is -0.106 ± 0.077.
Consider VKVYLPNKQRTVVTVRDGMSVYLSLDKALKVRGLNQDCCVVYRLIKGRKTVTAWDTAIAPLDGEELIVE, for which the abundance fitness was -0.493 ± 0.059.
With VKVYLPNKQRTVVTVRDGMSVYPSLDKALKVRGLNQDCCVVYRLIKGRKTVTAWDTAIAPLDGEELIVE, the abundance fitness is -0.931 ± 0.23.
For VKVYLPNKQRTVVTVRDGMSVYDFLDKALKVRGLNQDCCVVYRLIKGRKTVTAWDTAIAPLDGEELIVE the value was -0.349 ± 0.087.
To VKVYLPNKQRTVVTVRDGMSVYDYLDKALKVRGLNQDCCVVYRLIKGRKTVTAWDTAIAPLDGEELIVE belongs -0.487 ± 0.34.
Regarding VKVYLPNKQRTVVTVRDGMSVYDCLDKALKVRGLNQDCCVVYRLIKGRKTVTAWDTAIAPLDGEELIVE, the abundance fitness stood at 0.11 ± 0.093.
On to VKVYLPNKQRTVVTVRDGMSVYDMLDKALKVRGLNQDCCVVYRLIKGRKTVTAWDTAIAPLDGEELIVE, for which the abundance fitness is -0.04 ± 0.075.
VKVYLPNKQRTVVTVRDGMSVYDILDKALKVRGLNQDCCVVYRLIKGRKTVTAWDTAIAPLDGEELIVE: the abundance fitness came out at 0.027 ± 0.12.
To VKVYLPNKQRTVVTVRDGMSVYDRLDKALKVRGLNQDCCVVYRLIKGRKTVTAWDTAIAPLDGEELIVE belongs -0.914 ± 0.091; to VKVYLPNKQRTVVTVRDGMSVYDKLDKALKVRGLNQDCCVVYRLIKGRKTVTAWDTAIAPLDGEELIVE, -0.912 ± 0.17; to VKVYLPNKQRTVVTVRDGMSVYDGLDKALKVRGLNQDCCVVYRLIKGRKTVTAWDTAIAPLDGEELIVE, 0.149 ± 0.049.
To VKVYLPNKQRTVVTVRDGMSVYDDLDKALKVRGLNQDCCVVYRLIKGRKTVTAWDTAIAPLDGEELIVE belongs -0.887 ± 0.076.
For VKVYLPNKQRTVVTVRDGMSVYDVLDKALKVRGLNQDCCVVYRLIKGRKTVTAWDTAIAPLDGEELIVE the value was 0.031 ± 0.05.
With VKVYLPNKQRTVVTVRDGMSVYDPLDKALKVRGLNQDCCVVYRLIKGRKTVTAWDTAIAPLDGEELIVE, the abundance fitness was -0.896 ± 0.21.
Regarding VKVYLPNKQRTVVTVRDGMSVYDWLDKALKVRGLNQDCCVVYRLIKGRKTVTAWDTAIAPLDGEELIVE, the abundance fitness is -0.35 ± 0.061.
For VKVYLPNKQRTVVTVRDGMSVYDHLDKALKVRGLNQDCCVVYRLIKGRKTVTAWDTAIAPLDGEELIVE, the abundance fitness was -0.949 ± 0.3.
To VKVYLPNKQRTVVTVRDGMSVYDELDKALKVRGLNQDCCVVYRLIKGRKTVTAWDTAIAPLDGEELIVE belongs -0.652 ± 0.11; to VKVYLPNKQRTVVTVRDGMSVYDALDKALKVRGLNQDCCVVYRLIKGRKTVTAWDTAIAPLDGEELIVE, 0.174 ± 0.042.
For VKVYLPNKQRTVVTVRDGMSVYDQLDKALKVRGLNQDCCVVYRLIKGRKTVTAWDTAIAPLDGEELIVE, the abundance fitness is -0.411 ± 0.071.
Regarding VKVYLPNKQRTVVTVRDGMSVYDNLDKALKVRGLNQDCCVVYRLIKGRKTVTAWDTAIAPLDGEELIVE, the abundance fitness is -0.469 ± 0.23.
For the variant VKVYLPNKQRTVVTVRDGMSVYDTLDKALKVRGLNQDCCVVYRLIKGRKTVTAWDTAIAPLDGEELIVE, the abundance fitness is -0.025 ± 0.046.
